From paper PMC7025507

Target: hStau1^55 SSM/RBD5 construct (human)
Assay: SEC

stoichiometry N: 2
Substance: hStau1^55 SSM/RBD5 construct (domain or fragment)
